From PMC3219604 come the findings set out here.

The test system of this series is OrfAB-GFP GMF101 V179L ((insertion sequence IS2)). The experiment in a line: EMSA. As to conditions: panel (50- or 87-mer) not stated in material; 20 mM Tris-Cl pH 8.0, 1 mM EDTA, 5 ug/mL calf thymus DNA, 10 nM DNA, 0.11-0.13 uM protein, 30 min at 20 C; gels at 4 C. In general terms: In EMSA bound probe runs differently from free probe, usually more slowly.

For the sequence “GGATCCTTAAGTGATAACAGATGTCTGGAAATATAGGGGCAAATCCAGCG (double strand) [IRR 50-mer]”, the binding signal (binding score (0-5)) stood at 3.
